Laboratory results published in PMC9499943 (2022).
“And” between values parts separate entries of the source, which are not always exact repeats. Equal entries are not always repeated.

B1: CoV2-14 (antibody, V domains shown)
VH: EVQLQQSGPGLVKPSQTLSLTCAISGDSVSSNSAAWNWIRQSPSRGLEWLGRTYYRSKWYNDYAVSVKSRITINPDTSKNQFSLQLNSVTPEDTAVYYCAREEQQLVHDYYYYGMDVWGQGTMVTVSS
VL: QAVVTQPASVSGSPGQSITISCTGTSSDIGAYNYISWYQQHPGKAPKLIIYEVSNRPSGISYRFSGSKSGNTASLTISGLQAEDEANYYCSSYAGSISFGGGTKVTVL
B2: CoV2-06 (antibody, V domains shown)
VH: QVELQESGPGLVKPSGTLSLTCAVSGGSISSNNWWTWVRQPPGKGLEWIGEIHHSGGTNYNPSLKSRVTMSVDKSKNQFSLNLYSVTAADTAVYYCTRDRAGGTYSGFDFWGQGTLVTVSS
VL: QAVVTQPASVSGSPGQSITISCTGTSSDVGGYNYVSWYQQHPGKAPKLMIYDVSNRPSGVSNRFSGSKSGNTASLTISGLQAEDEADYYCSSYTSSSTVVFGGGTKVTVL

Legend:
[1] = target: T1, His-tagged RBD (RBD-His) protein of SARS-CoV-2 (SARS-CoV-2, UniProt P0DTC2 319-541); assay: BLI
[2] = target: T1, His-tagged RBD (RBD-His) protein of …; assay: BLI; remark: listed apart in the source

| Binder | koff [1] | Kd [2] |
| --- | --- | --- |
| B1 | 0.000222 s⁻¹ and 0.000552 s⁻¹ | 0.62 nM and 0.58 nM |
| B2 |  | 0.27 nM and 0.09 nM |
